Experimental data reported in publication PMC8617505.

System: CC1(C)S[C@@H]2[C@H](NC(=O)Cc3ccccc3)C(=O)N2[C@H]1C(=O)O
Experiment: purified protein

Substance | Km | kcat/Km
(Escherichia coli) | 27 ± 4 µM | 9e+06 ± 2e+06 M⁻¹ s⁻¹
(Mycobacterium tuberculosis H37Rv) | 72.9 ± 0.8 µM | 640000 ± 10000 M⁻¹ s⁻¹
